Experimental data as given in US20110166062A1 (INDIANA UNIVERSITY RESEARCH AND TECHNOLOGY, published 2011).
Where no end group is shown, it is not given here. [ ]: non-standard residue; d: D form. The star is where a group is joined. C18 fatty acyl = 18 carbon fatty acyl group covalently attached to Lys; PEG 40 kDa = PEG (40 kDa) covalently attached to Cys; Stearoyl = CCCCCCCCCCCCCCCCCC(=O)*; Palmitoyl = CCCCCCCCCCCCCCCC(=O)*; Myristoyl = CCCCCCCCCCCCCC(=O)*; Aib = CC(C)(N)C(=O)O

T1: GIP receptor (UniProt P48546 22-466)
T1 sequence (looked up): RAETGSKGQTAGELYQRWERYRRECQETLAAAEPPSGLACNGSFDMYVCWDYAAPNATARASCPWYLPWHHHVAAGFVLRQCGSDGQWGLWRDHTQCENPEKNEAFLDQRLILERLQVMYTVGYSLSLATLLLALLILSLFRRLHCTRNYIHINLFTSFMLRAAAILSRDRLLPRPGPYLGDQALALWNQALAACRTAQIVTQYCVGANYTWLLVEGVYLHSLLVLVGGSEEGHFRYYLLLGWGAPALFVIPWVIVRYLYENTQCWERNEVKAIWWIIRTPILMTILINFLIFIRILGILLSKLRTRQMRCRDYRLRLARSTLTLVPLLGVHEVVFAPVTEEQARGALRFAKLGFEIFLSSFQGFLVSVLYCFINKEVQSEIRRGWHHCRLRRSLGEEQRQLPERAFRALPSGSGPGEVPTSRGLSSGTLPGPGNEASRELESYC


Legend:
Experiment in all cases: cell-based or functional assay
[1] = molecular target: GLP-1 receptor (UniProt P43220 24-463, limits assumed)
[2] = molecular target: T1, GIP receptor
[3] = molecular target: glucagon receptor (UniProt P47871 26-477, limits assumed)
Chain of glucagon receptor (P47871 26-477 limits assumed): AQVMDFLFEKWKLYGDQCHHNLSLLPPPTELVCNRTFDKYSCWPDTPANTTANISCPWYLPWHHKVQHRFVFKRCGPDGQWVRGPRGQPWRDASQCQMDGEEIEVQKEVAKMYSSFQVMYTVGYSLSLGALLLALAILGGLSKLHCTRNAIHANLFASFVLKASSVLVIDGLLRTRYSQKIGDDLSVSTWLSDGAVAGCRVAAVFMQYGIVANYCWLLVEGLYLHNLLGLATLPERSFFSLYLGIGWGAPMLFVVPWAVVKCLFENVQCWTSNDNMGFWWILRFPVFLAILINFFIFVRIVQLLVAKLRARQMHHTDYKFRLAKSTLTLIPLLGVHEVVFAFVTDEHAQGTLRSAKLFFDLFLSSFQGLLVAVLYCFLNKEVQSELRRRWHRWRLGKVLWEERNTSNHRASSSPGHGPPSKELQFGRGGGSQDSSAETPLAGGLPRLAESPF

| Binder | EC50 [1] [pM] | EC50 [2] [pM] | EC50 [3] [pM] | relative activity [3] [%] | relative activity [1] [%] | relative activity [2] [%] |
| --- | --- | --- | --- | --- | --- | --- |
| Y[Aib]EGTFTSDYSIYLDKQAA[Aib]EFVCWLLAGGPSSGAPPPSK(C18 fatty acyl)-NH2 [mt-307] | 14.3 | 12.7 | – | – | – | – |
| Y[Aib]QGTFTSDYSIYLDKQAA[Aib]EFVNWLLAGGPSSGAPPPSK(Palmitoyl)-NH2 (N-terminus assumed; SMILES CCCCCCCCCCCCCCCC(=O)NCCCC[C@H](NC(=O)[C@H](CO)NC(=O)[C@@H]1CCCN1C(=O)[C@@H]1CCCN1C(=O)[C@@H]1CCCN1C(=O)[C@H](C)NC(=O)CNC(=O)[C@H](CO)NC(=O)[C@H](CO)NC(=O)[C@@H]1CCCN1C(=O)CNC(=O)CNC(=O)[C@H](C)NC(=O)[C@H](CC(C)C)NC(=O)[C@H](CC(C)C)NC(=O)[C@H](Cc1c[nH]c2ccccc12)NC(=O)[C@H](CC(N)=O)NC(=O)[C@@H](NC(=O)[C@H](Cc1ccccc1)NC(=O)[C@H](CCC(=O)O)NC(=O)C(C)(C)NC(=O)[C@H](C)NC(=O)[C@H](C)NC(=O)[C@H](CCC(N)=O)NC(=O)[C@H](CCCCN)NC(=O)[C@H](CC(=O)O)NC(=O)[C@H](CC(C)C)NC(=O)[C@H](Cc1ccc(O)cc1)NC(=O)[C@@H](NC(=O)[C@H](CO)NC(=O)[C@H](Cc1ccc(O)cc1)NC(=O)[C@H](CC(=O)O)NC(=O)[C@H](CO)NC(=O)[C@@H](NC(=O)[C@H](Cc1ccccc1)NC(=O)[C@@H](NC(=O)CNC(=O)[C@H](CCC(N)=O)NC(=O)C(C)(C)NC(=O)[C@@H](N)Cc1ccc(O)cc1)[C@@H](C)O)[C@@H](C)O)[C@@H](C)CC)C(C)C)C(N)=O) [mt-278] | 4.2 | 2.8 | – | – | – | – |
| Y[Aib]EGTFTSDYSIYLDKQAA[Aib]EFVNWLLAGGPSSGAPPPSK(Myristoyl)-NH2 [mt-260] | 6.8 | 1.8 | 321 | – | – | – |
| Y[Aib]QGTFTSDYSIYLDKQAA[Aib]EFVNWLLAGGPSSGAPPPSK(Myristoyl)-NH2 (N-terminus assumed; SMILES CCCCCCCCCCCCCC(=O)NCCCC[C@H](NC(=O)[C@H](CO)NC(=O)[C@@H]1CCCN1C(=O)[C@@H]1CCCN1C(=O)[C@@H]1CCCN1C(=O)[C@H](C)NC(=O)CNC(=O)[C@H](CO)NC(=O)[C@H](CO)NC(=O)[C@@H]1CCCN1C(=O)CNC(=O)CNC(=O)[C@H](C)NC(=O)[C@H](CC(C)C)NC(=O)[C@H](CC(C)C)NC(=O)[C@H](Cc1c[nH]c2ccccc12)NC(=O)[C@H](CC(N)=O)NC(=O)[C@@H](NC(=O)[C@H](Cc1ccccc1)NC(=O)[C@H](CCC(=O)O)NC(=O)C(C)(C)NC(=O)[C@H](C)NC(=O)[C@H](C)NC(=O)[C@H](CCC(N)=O)NC(=O)[C@H](CCCCN)NC(=O)[C@H](CC(=O)O)NC(=O)[C@H](CC(C)C)NC(=O)[C@H](Cc1ccc(O)cc1)NC(=O)[C@@H](NC(=O)[C@H](CO)NC(=O)[C@H](Cc1ccc(O)cc1)NC(=O)[C@H](CC(=O)O)NC(=O)[C@H](CO)NC(=O)[C@@H](NC(=O)[C@H](Cc1ccccc1)NC(=O)[C@@H](NC(=O)CNC(=O)[C@H](CCC(N)=O)NC(=O)C(C)(C)NC(=O)[C@@H](N)Cc1ccc(O)cc1)[C@@H](C)O)[C@@H](C)O)[C@@H](C)CC)C(C)C)C(N)=O) [mt-277] | 8.6 | 5.2 | – | – | – | – |
| YXQGTFTSDYSIYLDXQAAXEFVNWLLAGGPSSGAPPPSC (Orn at position 16; AIB at position 20) [mt-275] | 6.8 | 12.4 | 67.1 | 62.1 | 104 | 112 |
| Y[Aib]EGTFTSDYSIYLDKQAA[Aib]EFVCWLLAGGPSSGAPPPSK(Palmitoyl)-NH2 (N-terminus assumed; SMILES CCCCCCCCCCCCCCCC(=O)NCCCC[C@H](NC(=O)[C@H](CO)NC(=O)[C@@H]1CCCN1C(=O)[C@@H]1CCCN1C(=O)[C@@H]1CCCN1C(=O)[C@H](C)NC(=O)CNC(=O)[C@H](CO)NC(=O)[C@H](CO)NC(=O)[C@@H]1CCCN1C(=O)CNC(=O)CNC(=O)[C@H](C)NC(=O)[C@H](CC(C)C)NC(=O)[C@H](CC(C)C)NC(=O)[C@H](Cc1c[nH]c2ccccc12)NC(=O)[C@H](CS)NC(=O)[C@@H](NC(=O)[C@H](Cc1ccccc1)NC(=O)[C@H](CCC(=O)O)NC(=O)C(C)(C)NC(=O)[C@H](C)NC(=O)[C@H](C)NC(=O)[C@H](CCC(N)=O)NC(=O)[C@H](CCCCN)NC(=O)[C@H](CC(=O)O)NC(=O)[C@H](CC(C)C)NC(=O)[C@H](Cc1ccc(O)cc1)NC(=O)[C@@H](NC(=O)[C@H](CO)NC(=O)[C@H](Cc1ccc(O)cc1)NC(=O)[C@H](CC(=O)O)NC(=O)[C@H](CO)NC(=O)[C@@H](NC(=O)[C@H](Cc1ccccc1)NC(=O)[C@@H](NC(=O)CNC(=O)[C@H](CCC(=O)O)NC(=O)C(C)(C)NC(=O)[C@@H](N)Cc1ccc(O)cc1)[C@@H](C)O)[C@@H](C)O)[C@@H](C)CC)C(C)C)C(N)=O) [mt-296] | 12.4 | 7.7 | – | – | – | – |
| Y[Aib]EGTFTSDYSIYLDKQAA[Aib]EFVCWLLAGGPSSGAPPPSK(Myristoyl)-NH2 (N-terminus assumed; SMILES CCCCCCCCCCCCCC(=O)NCCCC[C@H](NC(=O)[C@H](CO)NC(=O)[C@@H]1CCCN1C(=O)[C@@H]1CCCN1C(=O)[C@@H]1CCCN1C(=O)[C@H](C)NC(=O)CNC(=O)[C@H](CO)NC(=O)[C@H](CO)NC(=O)[C@@H]1CCCN1C(=O)CNC(=O)CNC(=O)[C@H](C)NC(=O)[C@H](CC(C)C)NC(=O)[C@H](CC(C)C)NC(=O)[C@H](Cc1c[nH]c2ccccc12)NC(=O)[C@H](CS)NC(=O)[C@@H](NC(=O)[C@H](Cc1ccccc1)NC(=O)[C@H](CCC(=O)O)NC(=O)C(C)(C)NC(=O)[C@H](C)NC(=O)[C@H](C)NC(=O)[C@H](CCC(N)=O)NC(=O)[C@H](CCCCN)NC(=O)[C@H](CC(=O)O)NC(=O)[C@H](CC(C)C)NC(=O)[C@H](Cc1ccc(O)cc1)NC(=O)[C@@H](NC(=O)[C@H](CO)NC(=O)[C@H](Cc1ccc(O)cc1)NC(=O)[C@H](CC(=O)O)NC(=O)[C@H](CO)NC(=O)[C@@H](NC(=O)[C@H](Cc1ccccc1)NC(=O)[C@@H](NC(=O)CNC(=O)[C@H](CCC(=O)O)NC(=O)C(C)(C)NC(=O)[C@@H](N)Cc1ccc(O)cc1)[C@@H](C)O)[C@@H](C)O)[C@@H](C)CC)C(C)C)C(N)=O) [mt-306] | 20.1 | 6.4 | – | – | – | – |
| Y[Aib]EGTFTSDYSIYLDKQAA[Aib]EFVCWLLAGGPSSGAPPPSK-NH2 (N-terminus assumed; SMILES CC[C@H](C)[C@H](NC(=O)[C@H](CO)NC(=O)[C@H](Cc1ccc(O)cc1)NC(=O)[C@H](CC(=O)O)NC(=O)[C@H](CO)NC(=O)[C@@H](NC(=O)[C@H](Cc1ccccc1)NC(=O)[C@@H](NC(=O)CNC(=O)[C@H](CCC(=O)O)NC(=O)C(C)(C)NC(=O)[C@@H](N)Cc1ccc(O)cc1)[C@@H](C)O)[C@@H](C)O)C(=O)N[C@@H](Cc1ccc(O)cc1)C(=O)N[C@@H](CC(C)C)C(=O)N[C@@H](CC(=O)O)C(=O)N[C@@H](CCCCN)C(=O)N[C@@H](CCC(N)=O)C(=O)N[C@@H](C)C(=O)N[C@@H](C)C(=O)NC(C)(C)C(=O)N[C@@H](CCC(=O)O)C(=O)N[C@@H](Cc1ccccc1)C(=O)N[C@H](C(=O)N[C@@H](CS)C(=O)N[C@@H](Cc1c[nH]c2ccccc12)C(=O)N[C@@H](CC(C)C)C(=O)N[C@@H](CC(C)C)C(=O)N[C@@H](C)C(=O)NCC(=O)NCC(=O)N1CCC[C@H]1C(=O)N[C@@H](CO)C(=O)N[C@@H](CO)C(=O)NCC(=O)N[C@@H](C)C(=O)N1CCC[C@H]1C(=O)N1CCC[C@H]1C(=O)N1CCC[C@H]1C(=O)N[C@@H](CO)C(=O)N[C@@H](CCCCN)C(N)=O)C(C)C) [mt-308] | 23.7 | 5.7 | – | – | – | – |
| Y[Aib]EGTFTSDYSIYLDKQAA[Aib]EFVNWLLAGGPSSGAPPPSC(PEG 40 kDa)-NH2 [mt-274] | 91.6 | 35 | 69100 | 0.06 | 7.75 | 39.7 |
| Y[Aib]QGTFTSDYSIYLDKQAA[Aib]EFVNWLLAGGPSSGAPPPSK(Stearoyl)-NH2 (N-terminus assumed; SMILES CCCCCCCCCCCCCCCCCC(=O)NCCCC[C@H](NC(=O)[C@H](CO)NC(=O)[C@@H]1CCCN1C(=O)[C@@H]1CCCN1C(=O)[C@@H]1CCCN1C(=O)[C@H](C)NC(=O)CNC(=O)[C@H](CO)NC(=O)[C@H](CO)NC(=O)[C@@H]1CCCN1C(=O)CNC(=O)CNC(=O)[C@H](C)NC(=O)[C@H](CC(C)C)NC(=O)[C@H](CC(C)C)NC(=O)[C@H](Cc1c[nH]c2ccccc12)NC(=O)[C@H](CC(N)=O)NC(=O)[C@@H](NC(=O)[C@H](Cc1ccccc1)NC(=O)[C@H](CCC(=O)O)NC(=O)C(C)(C)NC(=O)[C@H](C)NC(=O)[C@H](C)NC(=O)[C@H](CCC(N)=O)NC(=O)[C@H](CCCCN)NC(=O)[C@H](CC(=O)O)NC(=O)[C@H](CC(C)C)NC(=O)[C@H](Cc1ccc(O)cc1)NC(=O)[C@@H](NC(=O)[C@H](CO)NC(=O)[C@H](Cc1ccc(O)cc1)NC(=O)[C@H](CC(=O)O)NC(=O)[C@H](CO)NC(=O)[C@@H](NC(=O)[C@H](Cc1ccccc1)NC(=O)[C@@H](NC(=O)CNC(=O)[C@H](CCC(N)=O)NC(=O)C(C)(C)NC(=O)[C@@H](N)Cc1ccc(O)cc1)[C@@H](C)O)[C@@H](C)O)[C@@H](C)CC)C(C)C)C(N)=O) [mt-279] | 4.6 | 4.5 | – | – | – | – |
